The results in this text go back to publication PMC8254758 (Structure (London, England : 1993), 2021).

The target in test [1] is rat NLGN2(+A) extracellular domain (Val43-His612, with splice insert SSA) (rat) (UniProt Q62888). In words: SPR. Background: SPR reads the build-up and loss of mass on a sensor chip optically.
Test [2] has as its target full-length SPARC (SPARC_C1) and the SPARC FS-EC domains (SPARC_C2). In words: fluorescence polarisation.
The target in test [3] is T1, rat NLGN2(+A) extracellular domain (Val43-His612, with splice insert SSA) (rat, UniProt Q62888-1 43-612). Description: SPR.
T1 sequence (Q62888 43-612): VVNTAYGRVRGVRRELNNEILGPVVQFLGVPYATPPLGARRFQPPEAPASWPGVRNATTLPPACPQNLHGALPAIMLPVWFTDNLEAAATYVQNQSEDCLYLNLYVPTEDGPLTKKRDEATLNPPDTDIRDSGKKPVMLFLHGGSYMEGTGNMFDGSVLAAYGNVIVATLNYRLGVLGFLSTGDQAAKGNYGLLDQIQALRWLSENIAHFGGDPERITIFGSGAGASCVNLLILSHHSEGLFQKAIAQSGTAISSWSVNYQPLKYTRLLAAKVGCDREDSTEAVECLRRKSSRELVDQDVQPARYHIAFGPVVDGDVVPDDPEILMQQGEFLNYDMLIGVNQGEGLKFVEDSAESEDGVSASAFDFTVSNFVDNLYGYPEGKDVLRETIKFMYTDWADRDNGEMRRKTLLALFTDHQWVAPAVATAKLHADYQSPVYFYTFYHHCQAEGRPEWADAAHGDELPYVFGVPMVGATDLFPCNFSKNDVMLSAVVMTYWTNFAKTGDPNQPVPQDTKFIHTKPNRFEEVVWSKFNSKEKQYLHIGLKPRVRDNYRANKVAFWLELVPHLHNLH
Test [4] deals with T1, rat NLGN2(+A) extracellular domain …. In words: fluorescence polarisation.

Chain of rat NLGN2(+A) extracellular domain (Val43-His612, with splice insert SSA) (rat) (Q62888 43-612): as above

On to “bovine neurexin 1α L1L6 (M1-S1339, without splice inserts) (domain or fragment)”, for which the Kd (in general, a measure of binding affinity in units of concentration) in test [1] came out at 3.8 nM.

As for “rat NLGN2(+A) extracellular domain (Val43-His612, with splice insert SSA) (from UniProt Q62888-1 43-612) (domain or fragment)”, in test [2], the dissociation constant (Kd) was 37 to 96 nM.

B1: hevin_C4 (L302-F664) (domain or fragment, human, UniProt Q14515 302-664, looked up)
chain: LEAISNHKETEEKTVSEALLMEPTDDGNTTPRNHGVDDDGDDDGDDGGTDGPRHSASDDYFIPSQAFLEAERAQSIAYHLKIEEQREKVHENENIGTTEPGEHQEAKKAENSSNEEETSSEGNMRVHAVDSCMSFQCKRGHICKADQQGKPHCVCQDPVTCPPTKPLDQVCGTDNQTYASSCHLFATKCRLEGTKKGHQLQLDYFGACKSIPTCTDFEVIQFPLRMRDWLKNILMQLYEANSEHAGYLNEKQRNKVKKIYLDEKRLLAGDHPIDLLLRDFKKNYHMYVYPVHWQFSELDQHPMDRVLTHSELAPLRASLVPMEHCITRFFEECDPNKDKHITLKEWGHCFGIKEEDIDENLLF
Take B1: the binding result in test [3] is given as “binds”.

B2: human MDGA1 Ig1-Ig2 (MDGA1_C8, Y22-T237) (domain or fragment, UniProt Q8NFP4-1 22-237, looked up)
chain: YAPAQAQIVHAGQACVVKEDNISERVYTIREGDTLMLQCLVTGHPRPQVRWTKTAGSASDKFQETSVFNETLRIERIARTQGGRYYCKAENGVGVPAIKSIRVDVQYLDEPMLTVHQTVSDVRGNFYQEKTVFLRCTVNSNPPARFIWKRGSDTLSHSQDNGVDIYEPLYTQGETKVLKLKNLRPQDYASYTCQVSVRNVCGIPDKAITFRLTNTT
In the case of B2, the binding result in test [4] is “binds”.

B3: MDGA1_C8 Mut4 (MDGA1 Ig1-Ig2 R105A, Y107A, R123A, F154A, R156A, Y187A) (domain or fragment, human, UniProt Q8NFP4-1 22-237, looked up)
chain: YAPAQAQIVHAGQACVVKEDNISERVYTIREGDTLMLQCLVTGHPRPQVRWTKTAGSASDKFQETSVFNETLRIERIARTQGGAYACKAENGVGVPAIKSIAVDVQYLDEPMLTVHQTVSDVRGNFYQEKTVALACTVNSNPPARFIWKRGSDTLSHSQDNGVDIAEPLYTQGETKVLKLKNLRPQDYASYTCQVSVRNVCGIPDKAITFRLTNTT
For the molecule B3, the binding result in test [4] is “binds”.
